Data from PMC8815872, “A novel dual-labeled small peptide as a multimodal imaging agent for targeting wild-type EGFR in tumors” (PLoS ONE, 2022).
Like-named read-outs stand apart in the source and are kept apart here. Where a SMILES comes first, the peptide text is derived from it. The star is where a group is joined. 5TAMRA = CN(C)c1ccc2c(c1)Oc1cc(N(C)C)ccc1C21OC(=O)c2cc(C(=O)*)ccc21

Legend:
[1] = Radiochemical stability in saline; type: physicochemical; conditions: room temperature, silica capillary column radio-chromatography, mean ± SD, n = 3
Method: To evaluate the radiochemical stability of the Tc-99m peptide complex, the labeled complex (0.1 ml) was incubated with 1 ml of saline at room temperature and freshly collected human serum at 37°C. Samples were collected at 30 min and at 1, 3, and 24 h and were analyzed using capillary column with saline (Rf of Tc-99m SYPIPDT-ECG-TAMRA and free pertechnetate = 0.9–1.0; Rf of colloid = 0.0–0.1) and acetone (Rf of free pertechnetate = 0.9–1.0; Rf of Tc-99m SYPIPDT-ECG-TAMRA and colloid = 0.0–0.1) as mobile phases. All experiments were conducted in triplicate (n = 3).

[2] = system: NCI-H460 cells (wtEGFR-positive); test: Saturation binding study, NCI-H460 cells; set-up: species or system human; conditions: 37°C, 1 h
Method: NCI-H460 and SW620 cells were cultured in a humidified atmosphere with 5% carbon dioxide at 37°C. The cells were maintained in Dulbecco modified Eagle medium supplemented with 10% fetal bovine serum, streptomycin (100 μg/ml), and penicillin (100 U/ml). The cells were used for experiments and studies once about 80% confluence had been reached.
The binding affinities of Tc-99m SYPIPDT-ECG-TAMRA for NCI-H460 and SW620 cells were evaluated by saturation binding studies as described previously. Briefly, NCI-H460 and SW620 cells were plated into 96-well plates at a density of 1 × 10^4 cells/well and cultured overnight. Cells were washed twice (5 min each) using ice-cold binding buffer (25 mM HEPES and 1% bovine serum albumin). A concentration gradient (0–2,000 nM) of Tc-99m SYPIPDT-ECG-TAMRA was added to the wells and the cells were maintained at 37°C for 1 h. The total volume of each well was 200 μl. After cells were washed twice using ice-cold binding buffer, the cells of each well were obtained for gamma counting. Radioactivities of collected cells were measured using a 1480 Wizard 3 gamma counter (PerkinElmer Life and Analytical Sciences, Wallingford, CT, USA). The binding affinity value (Kd) was calculated by non-linear regression models of GraphPad Prism software version 5.03 (GraphPad Software, La Jolla, CA, USA). Each data point is the average value of four determinations.

[3] = system: NCI-H460 cells (wtEGFR-positive); test: Cellular uptake using confocal microscopy, NCI-H460 cells; type: cell-based, human; conditions: 200 nM, 37°C, 1 h, serum free medium
Method: (§1) NCI-H460 and SW620 cells (1 × 10^5 cells) were cultured on the top of a cover-slip slide for 24 h at 37°C. The medium was replaced with fresh serum free medium (500 μL) containing Tc-99m SYPIPDT-ECG-TAMRA (200 nM). Cells were then incubated at 37°C for 1 h. These cells were rinsed three times with phosphate-buffered saline (PBS). The cell were stained with anti-human wtEGFR antibody (cat. 4267S; Cell Signaling Technology, Danvers, MA, USA) and Alexa Fluor® 488-conjugated goat anti-rabbit secondary antibody (cat. 111-545-003, 1:100 dilution; Jackson Immuno Research Inc., West Grove, PA, USA). The slides were covered with fluorescent mounting medium (Dako, Glostrup, Denmark) and closed with cover glasses. The confocal microscopic study was performed with a FV1200 confocal microscope (Olympus, Pittsburgh, PA, USA) with a 100× oil immersion lens.

[4] = system: mice bearing NCI-H460 and SW620 tumors; test: Ex vivo fluorescent imaging of excised organs and tumors; conditions: excised tumors after in vivo gamma camera imaging, n = 5
Method: Exposure time was 2.0 s per image. The images were analyzed using the dedicated software.

[5] = system: NCI-H460 and SW620 tumor tissue; test: Confocal microscopy with immunohistochemical staining of tumor tissue; type: in vivo, mice; conditions: frozen tumor slices
Method: After the ex vivo imaging study, tumor tissues were snap-frozen in liquid nitrogen. Frozen tumor tissues were cut into slices (10 μm in thickness). After drying at room temperature, slices were fixed with ice-cold acetone for 10 min and then air dried at room temperature for 20 min. Tumor sections were maintained with 5% goat serum for 30 min at room temperature for blocking of nonspecific binding. Then, tumor sections were stained with anti-human wtEGFR antibody (cat. 4267S; Cell Signaling Technology, Danvers, MA, USA) for 1 h at room temperature. After being rinsed with PBS buffer, tumor slides were incubated with Alexa Fluor® 488-conjugated goat anti-rabbit secondary antibody (cat. 111-545-003, 1:100 dilution; Jackson Immuno Research Inc., West Grove, PA, USA). After being washed three times with PBS, tumor slides covered using Prolong® Gold Antifade Reagent with 4’,6-diamidino-2-phenylindole (DAPI; Invitrogen, Carlsbad, CA, USA) and closed with cover glasses. Confocal microscopic study was performed using a FV1200 confocal microscope (Olympus) with a 60× oil immersion lens.

[6] = system: mice bearing NCI-H460 and SW620 tumors
Method: (§2) Six-week-old female homozygous athymic BALB/c nu/nu mice (weighing 16–18 g) were purchased from Damul Science (Daejeon, Korea) and kept in cages. They were provided free access to food and tap water. After one week of adaptation to laboratory conditions, the mice were subcutaneously inoculated with 1 × 10^7 NCI-H460 (wtEGFR-positive) and SW620 (wtEGFR-negative, as an internal reference) cells (in 0.1 ml PBS) in both sides of the anterior chest region, respectively. The tumors were allowed to grow to about 300 to 400 mm^3 in volume. Tumor volume was calculated using the formula: V (mm^3) = 0.5 × a × b^2, where a and b represent the long and perpendicular short diameters of the tumor by caliper measurements. Approximately 21 days after inoculation, gamma camera imaging and biodistribution studies were performed.
(§3) Following the in vivo gamma camera imaging study, mice were sacrificed by cervical dislocation after anesthesia by intraperitoneal injection of 100 mg/kg bodyweight ketamine (n = 5).
(§4) Tissues of tumors and selected organs were weighed and collected into pre-weighed gamma counter tubes. The radioactivity of the tissues were counted using a gamma counter (1480 Wizard 3; PerkinElmer Life and Analytical Sciences) and counts per minute were decay-corrected. Results are expressed as a percentage injected dose per gram of wet tissue (%ID/g). Total activities injected per animal were calculated by evaluating the difference between pre-injection syringe counts and remaining syringe counts after injection.

[7] = in vivo; conditions: female, athymic BALB/c nu/nu, mouse, total radioactivity, Mean %ID/g (SD)
Method: as §2, §3, §4

[8] = system: EGFR; conditions: concentration dependent; cited from earlier work
Excerpt: A major drawback of these imaging agents is their large size, which hinders efficient penetration into the targeted tissue and prevents rapid clearance from the non-targeted tissues. Therefore, efforts have been made to reduce the size of the targeting agents. Monoclonal antibody fragments such as Fab′, scFv, Affibody and Nanobody, have been investigated. However, the antibody fragments show reduced binding affinity for their target compared to the parental antibody, and their stability also decreases over time. In the present study, we tried to overcome these drawbacks by utiliz ...

[9] = system: SW620 cells (wtEGFR-negative); test: Cellular uptake using confocal microscopy, SW620 cells; type: cell-based, human; conditions: 200 nM, 37°C, 1 h, serum free medium
Method: as §1

[10] = NCI-H460 tumor (wtEGFR-positive)

**Q.** For `CC[C@H](C)[C@H](NC(=O)[C@@H]1CCCN1C(=O)[C@H](Cc1ccc(O)cc1)NC(=O)[C@@H](N)CO)C(=O)N1CCC[C@H]1C(=O)N[C@@H](CC(=O)O)C(=O)N[C@H](C(=O)NCC(=O)N[C@@H](Cc1c[nH]cn1)C(=O)N[C@@H](CCC(=O)O)C(=O)NCC(=O)N[C@@H](CCC(=O)O)C(=O)N[C@@H](CS)C(=O)NCC(=O)N[C@@H](CCCCNC(=O)c1ccc2c(c1)C(=O)OC21c2ccc(N(C)C)cc2Oc2cc(N(C)C)ccc21)C(=O)O)[C@@H](C)O` [Tc-99m SYPIPDT-ECG-TAMRA, Tc-99m SYPIPDT-GHEG-ECG-K-tetramethylrhodamine, metal not drawn] (H-SYPIPDTGHEGECGK(5TAMRA)-OH), which “intact percentage incubated in saline” value ([1]; 30 min, 0.1 ml complex in 1 ml) is on record?
**A.** The value was 95.1 ± 0.6%.

**Q.** And the “intact percentage incubated in saline” value ([1]; 1 h)?
**A.** Its value is 94.7 ± 1.3%.

**Q.** What about the “intact percentage incubated in saline” value ([1]; 3 h) of the same compound?
**A.** The value was 93.9 ± 1.1%.

**Q.** What about the “intact percentage incubated in saline” value ([1]; 24 h) of the same compound?
**A.** The value was 92.1 ± 1.4%.

**Q.** What about the Kd ([2]; 0-2,000 nM, gamma counting, non-linear regression, four determinations per point, read-out: binding affinity value (Kd) for NCI-H460 cells) of the same compound?
**A.** Its Kd is 0.0765 ± 0.0158 µM.

**Q.** And the Bmax ([2]; NCI-H460 cells)?
**A.** The Bmax was 3652 ± 189 fmol/mg protein.

**Q.** What about the “fluorescence activity of TAMRA on cells (confocal microscopy)” value [3] of the same compound?
**A.** The value was “strong fluorescence activity”.

**Q.** What about the “ex vivo fluorescent activity, NCI-H460 tumor versus SW620 tumor” value [4] of the same compound?
**A.** Its value is “significantly higher fluorescent activity”.

**Q.** And the “fluorescence within NCI-H460 tumor tissue (confocal microscopy)” value ([5]; NCI-H460 tumor)?
**A.** The value was “significant”.

**Q.** And the “fluorescent activity of TAMRA in SW620 tumor tissue (confocal microscopy)” value ([5]; SW620 tumor)?
**A.** The value was “barely detected”.

**Q.** What about the “tumor to normal muscle ratio of the %ID/g values” ([6]; 1 h after injection) of the same compound?
**A.** The value was 2.45 ± 0.22.

**Q.** What about the “tumor to normal muscle ratio of the %ID/g values” ([6]; 3 h after injection) of the same compound?
**A.** Its value is 7.13 ± 2.00.

**Q.** And the tissue uptake at 1 h ([7]; Blood)?
**A.** The tissue uptake at 1 h was 3.22 %ID/g.

**Q.** And the tissue uptake at 3 h ([7]; Blood)?
**A.** The tissue uptake at 3 h was 0.87 %ID/g.

**Q.** And the tissue uptake at 1 h ([7]; Colon)?
**A.** The tissue uptake at 1 h was 1.11 %ID/g.

**Q.** What about the tissue uptake at 3 h ([7]; Colon) of the same compound?
**A.** The tissue uptake at 3 h was 0.42 %ID/g.

**Q.** What about the tissue uptake at 1 h ([7]; Heart) of the same compound?
**A.** Its tissue uptake at 1 h is 1.43 %ID/g.

**Q.** And the tissue uptake at 3 h ([7]; Heart)?
**A.** The tissue uptake at 3 h was 0.45 %ID/g.

**Q.** And the tissue uptake at 1 h ([7]; Kidneys)?
**A.** The tissue uptake at 1 h was 21.1 %ID/g.

**Q.** What about the tissue uptake at 3 h ([7]; Kidneys) of the same compound?
**A.** Its tissue uptake at 3 h is 12.4 %ID/g.

**Q.** What about the tissue uptake at 1 h ([7]; Liver) of the same compound?
**A.** Its tissue uptake at 1 h is 1.9 %ID/g.

**Q.** And the tissue uptake at 3 h ([7]; Liver)?
**A.** The tissue uptake at 3 h was 1.07 %ID/g.

**Q.** What about the tissue uptake at 1 h ([7]; Lungs) of the same compound?
**A.** Its tissue uptake at 1 h is 2.23 %ID/g.

**Q.** And the tissue uptake at 3 h ([7]; Lungs)?
**A.** The tissue uptake at 3 h was 0.61 %ID/g.

**Q.** And the tissue uptake at 1 h ([7]; Muscles)?
**A.** Its tissue uptake at 1 h is 0.79 %ID/g.

**Q.** What about the tissue uptake at 3 h ([7]; Muscles) of the same compound?
**A.** Its tissue uptake at 3 h is 0.25 %ID/g.

**Q.** And the tissue uptake at 1 h [7, 10]?
**A.** The tissue uptake at 1 h was 1.91 %ID/g.

**Q.** What about the tissue uptake at 3 h [7, 10] of the same compound?
**A.** Its tissue uptake at 3 h is 1.7 %ID/g.

**Q.** What about the tissue uptake at 1 h ([7]; SW620 tumor (wtEGFR-negative)) of the same compound?
**A.** Its tissue uptake at 1 h is 1.27 %ID/g.

**Q.** And the tissue uptake at 3 h ([7]; SW620 tumor (wtEGFR-negative))?
**A.** The tissue uptake at 3 h was 0.54 %ID/g.

**Q.** What about the tissue uptake at 1 h ([7]; Stomach) of the same compound?
**A.** Its tissue uptake at 1 h is 1.68 %ID/g.

**Q.** What about the tissue uptake at 3 h ([7]; Stomach) of the same compound?
**A.** Its tissue uptake at 3 h is 0.37 %ID/g.

**Q.** Which “diminished the increased EGF-dependent phosphorylation of EGFR” value [8] does the source give for “SYPIPDT [small 7-mer peptide ligand for wild-type EGFR identified by phage display (Hamzeh-Mivehroud et al.)]” here?
**A.** Its value is 44%.

**Q.** What does the source list for “SYPIPDT-GHEG-ECG-K-tetramethylrhodamine [SYPIPDT-ECG-TAMRA, unlabeled precursor peptide with GHEG linker, ECG chelator and TAMRA dye]”?
**A.** fluorescence activity of TAMRA on cells (confocal microscopy) [3]: strong fluorescence activity; fluorescence activity of TAMRA on cells (confocal microscopy) [9]: barely detectable
